For data set [1], the target named is T1, SlERF36 (Solanum lycopersicum (tomato), UniProt A0A3Q7IBC2 1-221). Description: EMSA. In general terms: A gel shift assay detects complexes by their altered migration in electrophoresis.
Data set [2] has as its target T1, SlERF36. Nature of the data set: competition.

B1: SlGA2ox3 promoter mutated probe (dsDNA)
DNA 1: ATGCCCCCATCTAAAAAACCTTCATATTTC
DNA 2: GAAATATGAAGGTTTTTTAGATGGGGGCAT
In the case of B1, the binding result in data set [1] is given as “no binding”.

B2: SlGA2ox3 promoter GCC-box unlabelled competitor (dsDNA)
DNA 1: ATGCCCCCATCTGCCGCCCCTTCATATTTC
DNA 2: GAAATATGAAGGGGCGGCAGATGGGGGCAT
For the molecule B2, the binding result in data set [2] is reported as “binds”.

B3: SlGA2ox3 promoter GCC-box probe (dsDNA)
DNA 1: ATGCCCCCATCTGCCGCCCCTTCATATTTC
DNA 2: GAAATATGAAGGGGCGGCAGATGGGGGCAT
Regarding B3, the binding result in data set [1] is “binds”.

Values taken from PMC10955490.
